Results reported in patent US8242083B2, “Kinase substrates” (PerkinElmer Health Sciences, Inc., priority 2008, dated 2012).

How the values were obtained:
Format in all cases: biochemical
Conditions in all cases: Kinase Concentration 0.5 nM; 50 nM ULight-labeled substrate, 200 micromolar ATP, 2 hours
JAK3 = target: T1, JAK3 (Homo sapiens, UniProt P52333); test: TR-FRET kinase assay, JAK3
T1 sequence (P52333 1-1124): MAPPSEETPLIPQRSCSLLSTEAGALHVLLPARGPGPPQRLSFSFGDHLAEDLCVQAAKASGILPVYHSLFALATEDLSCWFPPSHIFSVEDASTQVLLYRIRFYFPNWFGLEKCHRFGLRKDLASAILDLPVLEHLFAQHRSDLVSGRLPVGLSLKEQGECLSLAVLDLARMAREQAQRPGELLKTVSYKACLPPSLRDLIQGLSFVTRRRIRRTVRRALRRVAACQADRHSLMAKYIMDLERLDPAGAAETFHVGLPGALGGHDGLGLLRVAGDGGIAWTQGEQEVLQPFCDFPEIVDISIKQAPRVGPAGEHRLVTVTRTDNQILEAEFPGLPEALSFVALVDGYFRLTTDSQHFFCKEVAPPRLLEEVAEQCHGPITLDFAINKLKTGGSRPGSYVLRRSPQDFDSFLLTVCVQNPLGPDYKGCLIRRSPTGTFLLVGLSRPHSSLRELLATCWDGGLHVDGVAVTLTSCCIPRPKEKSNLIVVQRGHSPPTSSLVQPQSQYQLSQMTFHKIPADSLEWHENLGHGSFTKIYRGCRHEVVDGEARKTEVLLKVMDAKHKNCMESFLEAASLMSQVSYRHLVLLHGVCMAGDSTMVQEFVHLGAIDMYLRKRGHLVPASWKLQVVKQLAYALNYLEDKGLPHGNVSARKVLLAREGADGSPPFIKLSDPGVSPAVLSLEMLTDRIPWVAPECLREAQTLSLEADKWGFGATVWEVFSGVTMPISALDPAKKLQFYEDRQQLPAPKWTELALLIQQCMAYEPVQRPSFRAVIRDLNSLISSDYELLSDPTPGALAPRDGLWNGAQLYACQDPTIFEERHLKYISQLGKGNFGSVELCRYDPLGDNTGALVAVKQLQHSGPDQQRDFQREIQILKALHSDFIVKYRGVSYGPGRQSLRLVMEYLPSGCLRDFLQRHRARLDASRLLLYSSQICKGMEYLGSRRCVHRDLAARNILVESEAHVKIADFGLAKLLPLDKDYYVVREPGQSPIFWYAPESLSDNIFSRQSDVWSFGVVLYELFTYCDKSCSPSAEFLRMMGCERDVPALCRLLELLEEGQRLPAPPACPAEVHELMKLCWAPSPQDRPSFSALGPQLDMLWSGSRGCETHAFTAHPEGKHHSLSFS
Experimental: (§1) TR-FRET kinase assays are performed under standardized conditions: various individual kinases are incubated with 50 nM of kinase substrate BRB1 labeled with the TR-FRET acceptor dye ULight (PerkinElmer) and 200 micromolar ATP in 10 μL of kinase assay buffer (50 mM HEPES pH7.5, 10 mM MgCl2, 3 mM MnCl2, 1 mM EGTA, 2 mM DTT and 0.01% Tween-20) for 2 hours at room temperature. Reactions are stopped with EDTA, and anti-phospho-tyrosine antibodies (clone PT66) labeled with the TR-FRET europium chelate donor dye are added to a final concentration of 2 nM in a final volume of 20 μL. The TR-FRET signal emitted at 665 nm is read one hour after the addition of antibodies using a TR-FRET plate reader such as the Envision® Multilabel Plate reader (PerkinElmer). The emitted signal at 665 nm is proportional to the extent of peptide phosphorylation, Control reactions indicative of background are performed excluding ATP from the reaction.
(§2) Assay conditions are identical to those used described for FIG. 1.

TEC = target: T2, TEC (Homo sapiens, UniProt P42680); test: TR-FRET kinase assay, TEC
T2 sequence (P42680 1-631): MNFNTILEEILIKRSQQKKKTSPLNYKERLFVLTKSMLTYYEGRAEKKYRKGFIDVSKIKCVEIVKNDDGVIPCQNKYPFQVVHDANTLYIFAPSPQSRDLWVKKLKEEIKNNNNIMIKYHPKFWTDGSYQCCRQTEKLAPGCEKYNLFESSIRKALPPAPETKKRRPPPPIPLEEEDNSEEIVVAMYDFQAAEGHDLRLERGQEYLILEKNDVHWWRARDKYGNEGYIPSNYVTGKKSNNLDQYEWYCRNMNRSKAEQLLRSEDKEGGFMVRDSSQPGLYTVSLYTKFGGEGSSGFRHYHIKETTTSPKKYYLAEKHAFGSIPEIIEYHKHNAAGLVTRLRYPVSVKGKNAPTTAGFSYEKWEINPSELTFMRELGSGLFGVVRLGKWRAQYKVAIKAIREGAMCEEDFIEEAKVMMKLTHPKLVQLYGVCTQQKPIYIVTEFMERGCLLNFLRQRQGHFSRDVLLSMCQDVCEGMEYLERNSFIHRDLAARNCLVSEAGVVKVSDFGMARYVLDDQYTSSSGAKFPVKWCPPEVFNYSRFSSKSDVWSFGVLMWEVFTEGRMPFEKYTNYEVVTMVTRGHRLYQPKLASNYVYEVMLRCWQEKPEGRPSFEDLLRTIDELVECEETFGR
Experimental: as §1, §2

LYNa = LYNa (Homo sapiens, UniProt P07948); test: TR-FRET kinase assay, LYNa
LYNa, sequence (P07948 whole entry, species assumed): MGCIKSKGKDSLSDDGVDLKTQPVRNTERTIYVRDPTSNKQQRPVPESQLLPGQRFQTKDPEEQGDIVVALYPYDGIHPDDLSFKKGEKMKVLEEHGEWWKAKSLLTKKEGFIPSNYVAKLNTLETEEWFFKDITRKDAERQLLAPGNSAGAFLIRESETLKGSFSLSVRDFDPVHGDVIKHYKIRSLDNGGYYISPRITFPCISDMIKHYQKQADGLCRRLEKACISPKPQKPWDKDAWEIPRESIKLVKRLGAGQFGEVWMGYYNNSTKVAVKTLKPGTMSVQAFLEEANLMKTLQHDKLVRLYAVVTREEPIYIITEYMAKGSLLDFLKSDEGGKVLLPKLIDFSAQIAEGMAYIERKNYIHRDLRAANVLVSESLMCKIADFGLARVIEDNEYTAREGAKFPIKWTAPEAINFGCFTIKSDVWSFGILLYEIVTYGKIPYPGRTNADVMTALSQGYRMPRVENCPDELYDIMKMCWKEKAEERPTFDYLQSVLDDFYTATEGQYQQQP
Experimental: as §1, §2

DDR1 = DDR1 (Homo sapiens, UniProt Q08345); test: TR-FRET kinase assay, DDR1
DDR1, sequence (Q08345 19-913, species assumed): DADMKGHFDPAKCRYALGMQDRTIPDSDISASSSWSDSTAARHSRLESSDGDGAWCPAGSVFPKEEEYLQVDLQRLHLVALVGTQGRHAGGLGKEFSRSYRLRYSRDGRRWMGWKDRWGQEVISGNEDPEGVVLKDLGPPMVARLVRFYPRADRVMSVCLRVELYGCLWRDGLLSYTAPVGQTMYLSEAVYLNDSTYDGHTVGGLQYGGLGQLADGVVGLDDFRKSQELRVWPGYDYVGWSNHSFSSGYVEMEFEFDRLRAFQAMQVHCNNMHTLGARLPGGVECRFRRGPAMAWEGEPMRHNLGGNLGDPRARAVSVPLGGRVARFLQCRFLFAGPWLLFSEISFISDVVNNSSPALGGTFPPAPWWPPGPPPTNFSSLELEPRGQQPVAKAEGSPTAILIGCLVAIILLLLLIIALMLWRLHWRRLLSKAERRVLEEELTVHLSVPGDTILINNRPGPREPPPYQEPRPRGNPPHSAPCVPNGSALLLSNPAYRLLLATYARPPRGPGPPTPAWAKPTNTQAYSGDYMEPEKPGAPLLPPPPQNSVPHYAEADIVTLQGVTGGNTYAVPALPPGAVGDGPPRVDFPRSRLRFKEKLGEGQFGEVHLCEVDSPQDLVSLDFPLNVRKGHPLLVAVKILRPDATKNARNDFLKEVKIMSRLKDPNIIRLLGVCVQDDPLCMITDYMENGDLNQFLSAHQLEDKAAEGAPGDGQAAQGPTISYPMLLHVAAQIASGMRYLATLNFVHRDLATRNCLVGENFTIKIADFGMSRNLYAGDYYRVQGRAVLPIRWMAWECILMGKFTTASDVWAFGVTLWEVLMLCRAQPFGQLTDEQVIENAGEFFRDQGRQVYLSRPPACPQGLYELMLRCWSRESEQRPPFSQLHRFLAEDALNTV
Experimental: as §1, §2

C AYE AYE AYE K EYA EYA EYA K AYA EYE R (CAYEAYEAYEKEYAEYAEYAKAYAEYER; tyrosine kinase substrate peptide) [BRB1]
Signal to Noise ratio with BRB1 Peptide (JAK3): 16.1 | Signal to Noise ratio with BRB1 Peptide (TEC): 18.6 | Signal to Noise ratio with BRB1 Peptide (LYNa): 32.5 | Signal to Noise ratio with BRB1 Peptide (DDR1): 1.0
